These results are taken from US20220195067A1 (LAMKAP BIO BETA, published 2022).

Assay [1] addresses T1, human CEACAM5 on CEACAM5-expressing cancer cell lines (human, UniProt P06731 35-685).
T1 construct: whole, on cells; also called CEACAM5 on SK-CO-1, MKN-45, HPAF-II, SNU-C1, Ls174T, LoVo cells
T1 sequence (looked up): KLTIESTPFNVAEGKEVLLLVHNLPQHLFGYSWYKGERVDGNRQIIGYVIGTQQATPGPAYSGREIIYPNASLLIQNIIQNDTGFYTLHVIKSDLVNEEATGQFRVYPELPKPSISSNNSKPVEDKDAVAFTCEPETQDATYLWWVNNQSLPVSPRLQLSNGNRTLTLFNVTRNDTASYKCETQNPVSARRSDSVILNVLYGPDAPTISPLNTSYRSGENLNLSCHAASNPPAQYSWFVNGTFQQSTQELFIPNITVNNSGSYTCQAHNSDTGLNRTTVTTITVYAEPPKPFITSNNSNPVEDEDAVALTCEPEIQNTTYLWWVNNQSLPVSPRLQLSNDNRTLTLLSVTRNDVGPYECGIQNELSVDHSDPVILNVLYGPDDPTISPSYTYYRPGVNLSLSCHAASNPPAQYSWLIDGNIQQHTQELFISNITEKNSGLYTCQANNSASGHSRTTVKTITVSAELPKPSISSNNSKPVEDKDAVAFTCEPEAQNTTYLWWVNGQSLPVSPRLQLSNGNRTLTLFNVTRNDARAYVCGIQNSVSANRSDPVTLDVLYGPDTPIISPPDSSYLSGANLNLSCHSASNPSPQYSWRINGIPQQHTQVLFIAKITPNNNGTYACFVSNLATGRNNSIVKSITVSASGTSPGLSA
Put plainly: flow cytometry on LoVo cells (carry CEACAM5 and CD47), PE anti-human IgG Fc. The method, then:
(§1) The binding of CD47×CEACAM5 bispecific antibodies was tested on CEACAM5-expressing human gastric adenocarcinoma cells (e.g. MKN-45), on CEACAM5-expressing human colorectal cancer cells (SK-CO-1, SNU-C1, Ls174T, and LoVo), and on CEACAM5-expressing pancreatic adenocarcinoma cells (HPAF-II).
(§2) Cells were harvested, counted, checked for viability and resuspended at 3×10⁶ cells/ml in FACS buffer (PBS 2% BSA, 0.1% NaN3). 100 μl of the cell suspension was distributed in V-bottom 96-well plates (3×10⁵ cells/well). The supernatant was removed by centrifugation 3 minutes at 4° C., 1300 rpm. Increasing concentrations of the antibody according to the invention were then added into the wells and incubated for 15 minutes at 4° C. Cells were washed twice with cold FACS buffer and re-incubated for further 15 minutes at 4° C. with the PE (R-phycoerythrin)-conjugated mouse anti-human IgG Fc secondary antibody (SouthernBiotech, pre-diluted 1:100 in FACS buffer). Cells were washed twice with cold FACS buffer and resuspended in 300 μl FACS buffer with 1:15000-diluted SytoxBlue (Life Technologies). Fluorescence, specifically mean fluorescence […] (MFI), was determined using a Cytoflex […] flow cytometer. Binding curves and […] and Emax values were obtained and calculated using GraphPad Prism7 software.
Background: In flow cytometry, cells or beads pass a laser one at a time.

Assay [2] has as its target T1, human CEACAM5 on CEACAM5-expressing …. The assay is described as follows: flow cytometry on Ls174T cells (carry CEACAM5 and CD47), PE anti-human IgG Fc. As for the experimental part:
as §1, §2

The target is the same in assay [3]. The assay is described as follows: flow cytometry on MKN-45 cells (carry CEACAM5 and CD47), PE anti-human IgG Fc. The method, then:
as §1, §2

For assay [4] the target is unchanged. The assay is described as follows: flow cytometry on SNU-C1 cells (carry CEACAM5 and CD47), PE anti-human IgG Fc. The method, then:
as §1, §2

For assay [5] the target is unchanged. Put plainly: flow cytometry on HPAF-II cells (carry CEACAM5 and CD47), PE anti-human IgG Fc. As for the experimental part:
as §1, §2

For assay [6] the target is unchanged. The assay is described as follows: flow cytometry on SK-CO-1 cells (carry CEACAM5 and CD47), PE anti-human IgG Fc. As for the experimental part: as §1, §2
The target in assay [7] is T2, human CD47 expressed at the surface of MKN-45 cells (human, UniProt Q08722 19-323).
T2 construct: whole, on cells; MKN-45 cells express both CD47 and CEACAM5; also called hCD47
The assay is described as follows: CD47/SIRPα blocking assay on MKN-45 cells (carry CD47 and CEACAM5), imaging of bound SIRPα-mouseFc. The source says:
The cell-based assay monitoring the interaction of soluble SIRPa with human CD47 expressed at the surface of MKN-45 cells as described below was used for the detection of the blocking activity. Concentration-response experiments with bispecific antibodies according to the invention allowed determination of inhibition curves (see FIG. 4) and of IC50 values (see Table 12).
MKN-45 cancer cells, expressing both CD47 and CEACAM5, were stained with CFSE violet to allow the imaging system (CX5) to detect the cells. Briefly, 3'000 stained MKN-45 cells per well were seeded in a 384 optical well plate (Costar) and incubated for 50 minutes with increased concentrations of bispecific antibodies of the invention ([…] to 333 nM, in quadruplicates). Then, a fixed concentration of SIRPα-mouseFc premixed with anti-mouse IgG-Fc AF647 coupled antibody (Jackson Immunoresearch diluted 1:2000) was added at 50 ng/mL final. After an incubation of 3 hours and 30 minutes, images of the fluorescence signals emitted by the detected bound SIRPa on the plates were acquired with the imaging system (CX5, Thermo Fisher). Fluorescence signals (mean fluorescence intensity MFI) were plotted according to the dose range tested, and IC50 was calculated by the software (Prism, GraphPad).

T2 sequence (Q08722 19-323): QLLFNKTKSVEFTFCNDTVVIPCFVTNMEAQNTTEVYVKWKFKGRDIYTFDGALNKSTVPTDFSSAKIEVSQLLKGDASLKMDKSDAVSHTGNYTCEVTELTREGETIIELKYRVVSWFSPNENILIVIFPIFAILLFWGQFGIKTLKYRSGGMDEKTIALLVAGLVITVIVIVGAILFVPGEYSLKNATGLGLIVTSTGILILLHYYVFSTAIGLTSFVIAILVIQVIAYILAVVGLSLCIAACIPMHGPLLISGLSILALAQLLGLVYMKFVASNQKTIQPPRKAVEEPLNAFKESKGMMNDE

B1: K2AC82 (bispecific antibody, human IgG1, kappa, lambda)
heavy: not shown
light 1: QSVLTQPPSVSAAPGQKVTISCSGSSSNIGYGLVSWYQQLPGTAPKLLIYGINKRPSGIPDRFSGSKSGTSATLGITGLQTGDEADYYCGTWDFSYRVDFGGGTKLTVLGQPKAAPSVTLFPPSSEELQANKATLVCLISDFYPGAVTVAWKADSSPVKAGVETTTPSKQSNNKYAASSYLSLTPEQWKSHRSYSCQVTHEGSTVEKTVAPTECS
light 2: not shown
notes: Kappa-lambda body; also called CD47xCEACAM5 bispecific antibody K2AC82; AC82 (CEACAM5 arm)
In general, EC50 refers to the concentration needed to bring the measured effect to its halfway point. The low end stands for an effect from little substance, the high end for a need for much substance. Broadly, the IC50 is the concentration that gives 50% inhibition. Turning to B1, the EC50 in assay [1] is 22 nM; in assay [2] it was 11.3 nM; in assay [3], 10 nM; in assay [4] it was 4.4 nM; in assay [5], 11.3 nM; in assay [6], 17.3 nM. Moreover, the “Emax (MFI)” value was determined as 260000 MFI in assay [1]; 77000 MFI in assay [2]; 1.18e+06 MFI in assay [3]; 280000 MFI in assay [4]; 940000 MFI in assay [5]; 900000 MFI in assay [6]. For the same molecule, the IC50 in assay [7] was 0.07 nM.

B2: K2AC91 (bispecific antibody, human IgG1, kappa, lambda)
heavy: not shown
light 1: QSVLTQPPSVSAAPGQKVTISCSGSSSNIGIGLVSWYQQLPGTAPKLLIYTVNNRPSGIPDRFSGSKSGTSATLGITGLQTGDEADYYCGTFDFSYGIVFGGGTKLTVLGQPKAAPSVTLFPPSSEELQANKATLVCLISDFYPGAVTVAWKADSSPVKAGVETTTPSKQSNNKYAASSYLSLTPEQWKSHRSYSCQVTHEGSTVEKTVAPTECS
light 2: not shown
notes: Kappa-lambda body; also called CD47xCEACAM5 bispecific antibody K2AC91; AC91 (CEACAM5 arm)
For the molecule B2, the EC50 was determined as 16 nM in assay [1]; 6 nM in assay [2]; 8 nM in assay [3]; 2.53 nM in assay [4]; 12.7 nM in assay [6]. In addition, the “Emax (MFI)” value in assay [1] came out at 380000 MFI; in assay [2], 100000 MFI; in assay [3] it was 1.64e+06 MFI; in assay [4], 400000 MFI; in assay [6], 1.3e+06 MFI. The half-inhibitory concentration (IC50) in assay [7] is 0.05 nM.

B3: K2AC117 (bispecific antibody, human IgG1, kappa, lambda)
heavy: not shown
light 1: QSVLTQPPSVSAAPGQKVTISCSGSSSNIGIGLVSWYQQLPGTAPKLLIYNGNVRPSGIPDRFSGSKSGTSATLGITGLQTGDEADYYCGTWDFSYRVDFGGGTKLTVLGQPKAAPSVTLFPPSSEELQANKATLVCLISDFYPGAVTVAWKADSSPVKAGVETTTPSKQSNNKYAASSYLSLTPEQWKSHRSYSCQVTHEGSTVEKTVAPTECS
light 2: not shown
notes: Kappa-lambda body; also called CD47xCEACAM5 bispecific antibody K2AC117; AC117 (CEACAM5 arm)
With B3, the EC50 is 20 nM in assay [1]; 6.7 nM in assay [2]; 8 nM in assay [3]; 3.13 nM in assay [4]; 7.3 nM in assay [5]; 14.7 nM in assay [6]. In addition, the “Emax (MFI)” value in assay [1] is 320000 MFI; in assay [2], 70000 MFI; in assay [3], 1.35e+06 MFI; in assay [4] it was 370000 MFI; in assay [5], 1.2e+06 MFI; in assay [6] it was 1.1e+06 MFI. In addition, the IC50 in assay [7] was found to be 0.08 nM.
